We go through one molecule from US20180230213A1 (AVEO PHARMACEUTICALS, published 2018).

For one experiment, the target named is T1, rhNotch2-Fc (human, UniProt Q04721 26-530).
T1 construct: also called human Notch2 protein; R&D Cat. No. 3735-NT-050
T1 sequence (looked up): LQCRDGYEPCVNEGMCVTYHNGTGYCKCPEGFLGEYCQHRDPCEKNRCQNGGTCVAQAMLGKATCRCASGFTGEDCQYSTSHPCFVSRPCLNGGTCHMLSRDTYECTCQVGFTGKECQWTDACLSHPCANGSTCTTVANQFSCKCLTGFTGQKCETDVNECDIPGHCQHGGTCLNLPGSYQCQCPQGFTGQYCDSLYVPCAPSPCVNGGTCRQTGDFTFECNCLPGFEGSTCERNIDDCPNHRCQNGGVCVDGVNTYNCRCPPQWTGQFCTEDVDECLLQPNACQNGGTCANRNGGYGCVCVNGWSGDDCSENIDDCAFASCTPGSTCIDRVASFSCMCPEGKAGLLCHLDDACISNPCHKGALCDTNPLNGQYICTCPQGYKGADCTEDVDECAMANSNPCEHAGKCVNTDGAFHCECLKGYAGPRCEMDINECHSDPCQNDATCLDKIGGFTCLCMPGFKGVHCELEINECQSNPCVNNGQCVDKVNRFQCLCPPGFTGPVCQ
Nature of the experiment: BLI (Octet QK): rhNotch2-Fc loaded on anti-human-Fc sensors, then antibody 4F11 in solution. How it is done: Antibody 4F11 was tested for binding to human Notch1, human Notch2, or human Notch3 proteins. Binding measurements were made by biolayer interferometry (BLI), using a FortéBio Octet® QK instrument (FortéBio, Menlo Park, Calif.). Anti-human-Fc sensors were soaked in PBS containing 1 mg/ml BSA for five minutes prior to binding of antibodies. Then the following proteins (400 nM, in PBS containing 1 mg/ml BSA) were allowed to bind to the sensors: rhNotch1-Fc (R&D Systems, Minneapolis, Minn.; Cat. No. 3647-TK-050), rhNotch2-Fc (R&D Cat. No. 3735-NT-050), rhNotch3-Fc (R&D Cat. No. 1559-NT-050), or rmNotch3-Fc (R&D Cat. No. 1308-NT-050). Notch protein bound sensors were immersed in antibody solution (50 μg/ml) to allow binding of antibody to the Notch protein. Binding was detected by shifts in the interference pattern.
In general terms: Biolayer interferometry detects binding as a change in optical thickness at a sensor tip.

Experiment [1] deals with T2, recombinant human Notch3 extracellular domain (containing EGF like domains 1-11) Fc fusion protein (human, UniProt Q9UM47 40-467).
T2 construct: domain: EGF like domains 1-11; also called rhNotch3-Fc; rhNotch3
T2 sequence (looked up): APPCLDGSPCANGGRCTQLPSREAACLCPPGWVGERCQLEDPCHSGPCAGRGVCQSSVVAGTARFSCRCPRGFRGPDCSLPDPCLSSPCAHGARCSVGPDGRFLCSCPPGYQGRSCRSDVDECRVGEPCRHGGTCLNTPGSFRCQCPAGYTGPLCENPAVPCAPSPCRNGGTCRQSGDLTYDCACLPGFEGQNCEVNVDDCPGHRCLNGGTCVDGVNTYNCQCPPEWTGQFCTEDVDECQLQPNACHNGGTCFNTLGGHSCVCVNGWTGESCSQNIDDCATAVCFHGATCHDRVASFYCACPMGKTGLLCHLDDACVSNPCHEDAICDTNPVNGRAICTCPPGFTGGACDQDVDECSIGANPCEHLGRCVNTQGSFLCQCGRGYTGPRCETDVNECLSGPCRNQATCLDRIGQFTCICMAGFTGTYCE
Nature of the experiment: SPR Biacore T100, 4F11 captured by anti-mouse IgG, rhNotch3-Fc analyte, 37 C. How it is done: The binding affinity and kinetics of binding of antibody 4F11 to recombinant human Notch3 extracellular domain (containing EGF like domains 1-11) Fc fusion protein (rhNotch3-Fc (R&D Systems, Inc., Minneapolis, Minn.)) were measured by surface plasmon resonance using a Biacore® T100 instrument (GE Healthcare, Piscataway, N.J.).
Rabbit anti-mouse IgGs (GE Healthcare) were immobilized on carboxymethylated dextran CM4 sensor chips (GE Healthcare) by amine coupling, according to a standard protocol. Analyses were performed at 25° C. and 37° C. using PBS containing 0.05% surfactant P20 as running buffer. The antibody was captured in individual flow cells at a flow rate of 10 μl/minute. Injection time was varied for each antibody to yield an Rmax between 30 and 60 resonance units (RU). Buffer or rhNotch3-Fc diluted in running buffer was injected sequentially over a reference surface (no antibody captured) and the active surface (antibody to be tested) for 240 seconds at 60 μl/minute. The dissociation phase was monitored for up to 1500 seconds. The surface was then regenerated with two 60-second injections of 10 mM Glycine-HCl, pH 2.25, at a flow rate of 30 μl/minute. The rhNotch3-Fc concentration range tested was 100 nM to 3.125 nM (2 fold dilution).
Kinetic parameters were determined using the kinetic function of the BIAevaluation software (GE Healthcare) with double reference subtraction. Kinetic parameters for the antibody, kₐ (association rate constant), kd (dissociation rate constant) and KD (equilibrium dissociation constant) were determined.

Experiment [2] has as its target T3, human Notch3 on the cell surface (human, UniProt Q9UM47 40-2321).
T3 construct: whole, on cells; the cells carry the full length protein; also called cell surface human Notch3; hNotch3
Nature of the experiment: FACS on RL-952 cells (human Notch3), 4 C, one site binding fit. How it is done:
Binding to cell surface human Notch3 by the antibody 4F11 was measured at 4° C., using Fluorescence Activated Cell Sorting (FACS). CHO N3 (Flp-In-CHO cells (Invitrogen) stably transfected with human Notch3), HCC2429 cells, and RL-952 cells expressing human Notch3 were washed once with PBS containing calcium chloride and magnesium chloride (Invitrogen) and harvested using cell dissociation buffer (Invitrogen). Cells were washed a second time with PBS and resuspended in FACS buffer (PBS with 0.5% BSA (Sigma-Aldrich)) for a final cell concentration of 250,000 cells per well into a 96-well v-bottom plate. Purified antibodies were diluted in FACS buffer over a concentration range of 100 nM to 0.1 nM. Cells were then incubated at 4° C. with […] of antibody for one hour, washed with FACS buffer twice, and resuspended in […] of goat-anti mouse PE-conjugated antibody (Jackson Immuno Research). Cells were incubated at 4° C. for 30 minutes in the dark, washed once with FACS buffer, and then analyzed using a Beckman Coulter Cytomics FC 500 instrument. The geometric mean of the florescent intensity was then calculated for each antibody concentration. These values were then entered into Prism software (GraphPad, La Jolla, Calif.) and used to generate a binding curve by plotting geometric mean versus antibody concentration. […]

B1: antibody 4F11 (murine monoclonal anti-human Notch3) (antibody, mouse IgG1, kappa, V domains shown)
VH: EVQLVESGGGLVKPGGSLKLSCAASGFAFSSYDMSWVRQTPEKRLEWVAYISRGGGSTYYPDTVKGRFTISRDNAKNTLYLQMSSLKSEDTAMYYCGRHATTAYWYFDVWGAGTTVTVSS
VL: DVVMTQTPLSLPVSLGDQASISCRSSQSLVHTNGNTYLHWYLQKPGQSPKLLIYKVSNRFSGVPDRFSGSGSGTDFTLKISRVEAEDLGVYFCSQSTHVPWTFGGGTKLEIKR
notes: Mouse IgG1 kappa purified from hybridoma; also called mu4F11; murine 4F11
What is called Kd is the concentration at which binding is half-saturated. As usually defined, the koff is a measure of how fast the partners let go of each other. One may read the kon as the rate constant with which the complex forms. Take B1: the binding result with rhNotch2-Fc was “no binding”. Further, in experiment [1], the dissociation constant (Kd) came out at 0.78 nM, the koff was 5.7e-05 s⁻¹ and the kon came to 75000 M⁻¹ s⁻¹. In experiment [2], this molecule came in with a Kd of 0.963 nM.
